{
  "source": "patent US20080242608",
  "molecular_target": "T1, GST-FOXO3 peptide P2 (amino acids 154-259), O43524",
  "T1 chain": "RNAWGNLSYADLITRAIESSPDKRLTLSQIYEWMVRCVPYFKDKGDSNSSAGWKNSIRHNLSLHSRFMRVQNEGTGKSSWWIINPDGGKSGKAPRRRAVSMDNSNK",
  "data": [
    {"protein": "FLAG-MST1 (protein) METVQLRNPPRRQLKKLDEDSLTKQPEEVFDVLEKLGEGSYGSVYKAIHKETGQIVAIKQVPVESDLQEIIKEISIMQQCDSPHVVKYYGSYFKNTDLWIVMEYCGAGSVSDIIRLRNKTLTEDEIATILQSTLKGLEYLHFMRKIHRDIKAGNILLNTEGHAKLADFGVAGQLTDTMAKRNTVIGTPFWMAPEVIQEIGYNCVADIWSLGITAIEMAEGKPPYADIHPMRAIFMIPTNPPPTFRKPELWSDNFTDFVKQCLVKSPEQRATATQLLQHPFVRSAKGVSILRDLINEAMDVKLKRQESQQREVDQDDEENSEEDEMDSGTMVRAVGDEMGTVRVASTMTDGANTMIEHDDTLPSQLGTMVINAEDEEEEGTMKRRDETMQPAKPSFLEYFEQKEKENQINSFGKSVPGPLKNSSDWKIPQDGDYEFLKSWTVEDLQKRLLALDPMMEQEIEEIRQKYQSKRQPILDAIEAKKRRQQNF", "values": [
      {"measurement": "in vitro kinase assay (phosphorylation of GST-FOXO3 peptides)", "result": "MST1 robustly phosphorylated the P2 fragment"}
    ]}
  ]
}
